Results taken from publication PMC4827055.

Biological target: human Toll-like receptor 5 (TLR5) expressed on HEK293 cells (human) (UniProt O60602)
Sequence of UniProt O60602 (O60602 21-858): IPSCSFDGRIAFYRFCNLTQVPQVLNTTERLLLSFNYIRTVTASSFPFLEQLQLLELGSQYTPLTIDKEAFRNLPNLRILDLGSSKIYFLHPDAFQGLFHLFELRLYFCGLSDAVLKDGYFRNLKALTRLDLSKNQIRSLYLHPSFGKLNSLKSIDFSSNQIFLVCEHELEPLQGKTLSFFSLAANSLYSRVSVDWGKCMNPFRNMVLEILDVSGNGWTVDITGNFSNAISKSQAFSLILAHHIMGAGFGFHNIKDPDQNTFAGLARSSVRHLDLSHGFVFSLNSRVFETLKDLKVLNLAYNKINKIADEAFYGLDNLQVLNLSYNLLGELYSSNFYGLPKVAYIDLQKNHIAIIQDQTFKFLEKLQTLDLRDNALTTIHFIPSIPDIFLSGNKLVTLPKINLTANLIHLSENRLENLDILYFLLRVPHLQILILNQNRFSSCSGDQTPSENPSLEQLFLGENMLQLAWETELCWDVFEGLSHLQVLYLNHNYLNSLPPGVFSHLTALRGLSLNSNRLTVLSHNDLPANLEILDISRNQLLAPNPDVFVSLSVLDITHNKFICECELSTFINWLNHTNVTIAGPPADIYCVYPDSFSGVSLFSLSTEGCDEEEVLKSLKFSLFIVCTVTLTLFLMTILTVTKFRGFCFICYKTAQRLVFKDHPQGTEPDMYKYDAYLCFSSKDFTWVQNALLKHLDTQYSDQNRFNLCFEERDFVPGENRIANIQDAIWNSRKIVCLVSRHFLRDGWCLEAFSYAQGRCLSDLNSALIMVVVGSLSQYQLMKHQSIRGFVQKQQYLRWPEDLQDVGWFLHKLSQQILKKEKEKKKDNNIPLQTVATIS

Substance	EC50 (half maximal induction) of NF-κB luciferase reporter in HEK293/hTLR5 cells, 24 hr stimulation
recombinant flagellin (rFliC) from Salmonella enterica serovar Typhimurium (from UniProt P06179 1-495) (natural protein)	0.0067 nM
recombinant flagellin-E7m fusion protein rFliCE7m (E7m fused at the C-terminus of flagellin) (from UniProt P06179 1-495)	0.0237 nM
